# Measured values reported in US20090275511A1 (IPSEN PHARMA S A S, published 2009).
# Numbered stars: 1 amine (or outer) side, 2 acyl side, 3 side chain; on linkers, the order of the positions; unused ones are H or OH. Square brackets hold non-standard residues; d marks the D form. Glu(NH-hexyl) = N5-hexyl-L-glutamine (glutamic acid gamma-hexylamide), CCCCCCNC(=O)CC[C@H](N[*:1])C(=O)[*:2]; 1‑Apc = not defined here; Aib = CC(C)(N)C(=O)O
# B1: (Ac-Inp^1, Aib^2,10, Glu(NH-hexyl)^3)hGhrelin(1-28)-NH2 (peptide)
# peptide: XXEFLSPEHXRVQQRKESKKPPAKLQPR
# HELM: PEPTIDE1{[ac].[O=C(C1CCN([*:1])CC1)[*:2]].[Aib].[CCCCCCNC(=O)CC[C@H](N[*:1])C(=O)[*:2]].F.L.S.P.E.H.[Aib].R.V.Q.Q.R.K.E.S.K.K.P.P.A.K.L.Q.P.R.[am]}$$$$V2.0
# SMILES: CCCCCCNC(=O)CC[C@H](NC(=O)C(C)(C)NC(=O)C1CCN(C(C)=O)CC1)C(=O)N[C@@H](Cc1ccccc1)C(=O)N[C@@H](CC(C)C)C(=O)N[C@@H](CO)C(=O)N1CCC[C@H]1C(=O)N[C@@H](CCC(=O)O)C(=O)N[C@@H](Cc1c[nH]cn1)C(=O)NC(C)(C)C(=O)N[C@@H](CCCNC(=N)N)C(=O)N[C@H](C(=O)N[C@@H](CCC(N)=O)C(=O)N[C@@H](CCC(N)=O)C(=O)N[C@@H](CCCNC(=N)N)C(=O)N[C@@H](CCCCN)C(=O)N[C@@H](CCC(=O)O)C(=O)N[C@@H](CO)C(=O)N[C@@H](CCCCN)C(=O)N[C@@H](CCCCN)C(=O)N1CCC[C@H]1C(=O)N1CCC[C@H]1C(=O)N[C@@H](C)C(=O)N[C@@H](CCCCN)C(=O)N[C@@H](CC(C)C)C(=O)N[C@@H](CCC(N)=O)C(=O)N1CCC[C@H]1C(=O)N[C@@H](CCCNC(=N)N)C(N)=O)C(C)C
# notes: Synthetic analog of human ghrelin(1-28)
# Molecular target: T1, human GH secretagogue receptor (human, UniProt Q92847 1-366)
# T1 construct: whole, on cells; the Ca2+ assay used the whole cells; also called hGHS-R; ghrelin receptor
# T1 sequence (Q92847 whole entry): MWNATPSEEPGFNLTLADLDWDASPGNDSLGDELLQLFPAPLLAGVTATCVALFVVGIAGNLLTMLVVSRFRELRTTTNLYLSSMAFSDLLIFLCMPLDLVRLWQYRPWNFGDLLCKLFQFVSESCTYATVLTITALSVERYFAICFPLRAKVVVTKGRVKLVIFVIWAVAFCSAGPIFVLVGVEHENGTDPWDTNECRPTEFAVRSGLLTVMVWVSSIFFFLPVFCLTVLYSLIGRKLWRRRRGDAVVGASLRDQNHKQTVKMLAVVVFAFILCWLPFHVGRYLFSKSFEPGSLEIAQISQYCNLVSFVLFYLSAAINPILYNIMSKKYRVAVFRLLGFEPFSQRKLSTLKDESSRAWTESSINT
# Experiment: competition with 0.05 nM (125I)ghrelin on membranes of CHO-K1 cells expressing hGHS-R, filtration
# Protocol: The homogenates were washed twice by centrifugation (39,000 g/10 minutes) and the final pellets were resuspended in about 50 mM Tris-HCl containing 2.5 mM MgCl₂ and 0.1% bovine serum albumin (BSA). For the selected assay, aliquots of approximately 0.4 ml were incubated with 0.05 nM (¹²⁵I)ghrelin (˜2000 Ci/mmol; Perkin Elmer Life Sciences®, Boston, Mass., U.S.A.) with and without 0.05 ml of unlabeled competing test peptide.
row,Binder,Ki [nM]
1,B1,370
2,"Ac-[1‑Apc][Aib][Glu(NH-hexyl)]FLSPEH[Aib]RVQQRKESKKPPAKLQPR-NH2 (reading uncertain, Synthetic analog of human ghrelin(1-28)) [(Ac-1-Apc^1, Aib^2,10, Glu(NH-hexyl)^3)hGhrelin(1-28)-NH2]",40
